Measured values published in patent US20020164696.

Legend:
[1] = molecular target: T1, synthetic peptide corresponding to bovine kappa-CN
T1 chain: HPHPHLSXMAI

[2] = molecular target: T2, synthetic peptide corresponding to camel kappa-CN
T2 chain: RPRPRPSXIAI

B1: recombinantly produced bovine chymosin, ChyMax (protein)
chain: GEVASVPLTNYLDSQYFGKIYLGTPPQEFTVLFDTGSSDFWVPSIYCKSNACKNHQRFDPRKSSTFQNLGKPLSIHYGTGSMQGILGYDTVTVSNIVDIQQTVGLSTQEPGDVFTYAEFDGILGMAYPSLASEYSIPVFDNMMNRHLVAQDLFSVYMDRNGQESMLTLGAIDPSYYTGSLHWVPVTVQQYWQFTVDSVTISGVVVACEGGCQAILDTGTSKLVGPSSDILNIQQAIGATQNQYGEFDIDCDNLSYMPTVVFEINGKMYPLTPSAYTSQDQGFCTSGFQSENHSQKWILGDVFIREYYSVFDRANNLVGLAKAI
[1]
  KM for Bt κ-CN: 0.165 ± 0.015/-0.014 mM
  kcat for Bt κ-CN: 44.3 s⁻¹
[2]
  KM for Cd κ-CN: 0.134 ± 0.022/-0.021 mM
  kcat for Cd κ-CN: 4.3 s⁻¹

B2: recombinant Camelus dromedarius chymosin (protein)
chain: GKVAREPLTSYLDSQYFGKIYIGTPPQEFTVVFDTGSSDLWVPSIYCKSNVCKNHHRFDPRKSSTFRNLGKPLSIHYGTGSMEGFLGYDTVTVSNIVDPNQTVGLSTEQPGEVFTYSEFDGILGLAYPSLASEYSVPVFDNMMDRHLVARDLFSVYMDRNGQGSMLTLGAIDPSYYTGSLHWVPVTLQQYWQFTVDSVTINGVAVACVGGCQAILDTGTSVLFGPSSDILKIQMAIGATENRYGEFDVNCGNLRSMPTVVFEINGRDYPLSPSAYTSKDQGFCTSGFQGDNNSELWILGDVFIREYYSVFDRANNRVGLAKAI
[1]
  KM for Bt κ-CN: 0.077 ± 0.019/-0.015 mM
  kcat for Bt κ-CN: 11.7 ± 1.5/-1.2 s^-1
[2]
  KM for Cd κ-CN: 0.056 ± 0.035/-0.021 mM
  kcat for Cd κ-CN: 5.1 ± 1.7/-1.0 s^-1
